Reference: a protein production outcome set (Wang et al. 2014)

Experiment: label from the status in PepcDB records
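Further: failed if final PepcDB status was selected cloned or expressed and not failed if soluble or beyond.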

Row | Sequence | protein production
1 | EEMEKGFDPKRYARELWFKLQDMMNEGLGYDAVEVLNTLDENPELAHQKFAKVVGVSNYRYYIIQGVGEIVEIKDDGILVKVRENRKVPDLFLSNHIFGNGIVNATGIAKMEDFDRIIDFNLTATELNKIVKEEVVNSFLKQLSKGAGSVGSLVRFIAVFTLLKDEEIKYPIEAIPLYLEIQGGF | not failed
2 | MLTYYLKTEIQLLFRKKVYLVLSILVPLALYLLFTSILDLPEEAKKPFYKEYMYSMTAFSLSSFCLMQFPIDLINEKTTGWYKNLMRTPLQSHQYYMAKVFKMMFQFILAILLIFIVAHFMKGVEMSTSDWLLSGLILWIGASTFLSVGVLISQINEIQKASSIGNILYLSLAILGGLWFPVSQFPEWMRKIAYVTPTYHLKQVAYEIGKGGTLDYLSLFVLVGYSILFLVVALIIQKRRDVDI | failed
3 | MNNPDLPYRQALECLSQKQYNFTEVRRLLTEAFSAGHPAAAFELAKHLMDADSPYQDREQGMEMLRIAAEQGHPYARYNLAYIQELEGAPPETLIPLYRPLAEEGLPEAQVRLMYLLYASRHFEEALEWAKTSAKNNNPHGQYLLAQYCRYGTPPDFETAHLLYRKSAAQGLPEAHWQLGLQYRFGQGTKVDTAQAVNHLRAAAQQGYIPAYTPLAELILPTAPDEAVHWFQQAAQENDPDAHAALADIYLQGKHLERNHKLALHHAEAAAAERHPEGLRILGDICRYGLGIAPDTEKARHYYRQAAEAGSLSAYQKLISDSALNHPDQYGGIKDSAIRRQRAERLYQKAQALHYGLQCAPEYAAALKLYTEAAELGHSKAQTNLGSMYYFGQGMTADYNEARKWFEKAAAKKDSMAFYNLACIHYSGHGVEPDKEKACRYLQEAINNGYGQKSVLQELLQQWQNAV | failed
4 | MVITLSRLYVHPVKSMRGLQLSHAQVSSSGLAFDRVFMITEPDGTFITARQYPKMVMFTPALMSDGLYLTAPDGESASIRFNDFLANAEPTEVWGNHFTALIAPAAINNWLSGYFQREVQLRWLGPELTRRVKPMPEIPLSFADGFPYLLINEASFKELQQRCPGSIKLEQFRPNLLVTGASAFAEDSWQVIRVGDITFDLVKPCSRCVLTTVSVERGRKHPTGEPLQTLQTFRTAENGDIDFGQNMVARNSGIIRVGDEVEVLSTKPPRPYGAGAVVESLAAPEDKSKAVAIEYNGIRFNGNNQQVLLEQLEQQNIRIPYSCRAGICGSCRITLINGEVAPLKQSAIGNDGTILCCSCIPKGDITLSGK | failed
5 | RDVAFTADGTTAYGTLHVPEHRAGQRLRAALLLPGSGPTDRDGNQPPASLPDTLAQLADTLGKDGVATLRFDKYGTGRTGLGTYQDRPEELDYPAFVRQARAGYESLRDQPETDPHALLVVGHSEGAMTGLLLGGTVSPRPAGLALLQPQAIRMLDLVALQLRAQIAEATRQGQFTPEQQRTVNAAVDAAVTALRERRPVDTADLPSPIARLFEAFQGPNARFVRSDDAVYPPDTAFALRPGTKVLLTCGTHDVQVPCDTTNVLTTALRHAHAHGPGRVVLPGVDHLMHDTDHPATLTPPVLDSL | failed
6 | MSNKIITLEINLEPSDNHRLASLCGPFDDNIKHLERRLGVEINYRGNFFTIVGQPHTAAAALDIIKTLYVETAPVRGQITDIEPEQIHLAIKESGVLEQHSESSIAHGKEVFVKTKKGVIKPRTPNQAQYLMNMVTHDITFGVGPAGTGKTYLAVAAAVDALERQEIRRILLTRPAVEAGEKLGFLPGDLSQKVDPYLRPLYDALFEMLGFERVEKLIERNVIEVAPLAYMRGRTLNDAFIILDESQNTTVEQMKMFLTRIGFNSRAVITGDVTQIDLPRGAKSGLRHAIEVLNEVDEISFNFFQADDVVRHPVVARIVNAYEKWEAQDQKERKEYEQRRREERENKLLEMQRAEMTLSHNNESNPS | failed
7 | MTTIHFHNVYVASRGTSVGLLEKQGPLGNRFDYTHEDNTCQQDSFEKAERYMLQEAVDATIRKSDYSIKDIEVMIGGDLINQLTSSHYFAKEFPISFLGMYAACASSSLVIGQAALWVEHQLAKTALAFTSSHVATAERQFRFPNEYGIQKKETTTCTVTGAGAVLLSRKKSKLKVASFTVGKVVDWQYNDANDMGVAMAPAAYDTLTTYFKDTNQSFQDFDLIVTGDLSKLGFAFLRDLLLQNGYCCEEKLQDCGLMIYDIVKQNVFCGGSGCACSMCVSMTKLLDLLEQQEARRIMVLATGALLSPIAIQQKESIPCIAHAIVYERS | failed
8 | MAKILEGPAMKLFNKWGIPVPNYVVIMDPERLAQLGEANKWLRESKLVVKAHEAIGGRFKLGLVKLGLNLEEALEASREMIGRKIGTAVVRQVIVAEMLEHDEEYYVSIAGNRDGAELLLSTKGGVDIEDNWDTVKRLFIPMDETPSVERLTEVAAEAGFTGEVAERVAKIAARLILCFDNEDAQSIEINPLVIRKSDMRFAALDAVMNVDYDARFRHADWDFKPVSEIGRPYTEAEQQIMEIDARIKGSVKFVEVPGGEIALLTAGGGASVFYSDAVVARGGTIANYAEYSGDPPDWAVEALTETICRLPKIRHIIVGGAIANFTDVKATFSGIINGLRESRSKGYLQNVTIWVRRGGPNENQGLAAIRKLQDEGFDIHVYDRSMPMTDIVDLAMNS | failed
9 | MIGPENCNSVSEPIAYVIILAGGRSSRMGYDKAQVMVDGRRLIDLCLESIASVHAHPIVVSGQDLQLTAAVTQVMEEPAFGGPVAGIAAGMRCCDTKAGLIGVIAVDAPRSGNYLNQLRRVVLTHPEVGVAHAVVEGYDQPLLAVWRYEALTQALHALGSPRNVAAKRLLRSATTPVIAVPVDSSARDYDTVAELSALGRVRLRLEHHHHHH | failed
10 | MPVKRIAVFSTTHIGFLDMLGRSDGIIGVSRPEFVNTPAVRSRIRSGAIKAIGMPFSPDVEALLNLEPDLVIAPALPAARKTDYQALVQAGIPVLVVAEWLEPSPLGRAEWIKLFGALVGKEKLARERFAAIESSYLKIAALSRNLPLEHHHHHH | failed
11 | MSEEQHILEVLQSDDAEQVREAAYSAGELRLEAAVPHLVRHLQSQNIGVQEAVDNALRKIGGAAAVAGVIPLLRSDDAPIRNISMDILRDIGRDEFDALKQLLHDEDPDIRIFASDILGTSGSILAVPALCEALLRDPEVNVRYQAAVSLGTLAFPEAADCLNKAMQDEEWVQFSVIEALIKIRAESSVNALVKALDTTSDLVASMIVDALGEMGNLKAVPLLLKRIEKSPTPLRNKIVRAIVSILGKKSLSLLGEREQQRLGAYLLAALDDEDEEVQDAAMVGLASLGQAEATVAVLRLAARLDPDRDHERLEAAIRCIGGIGFNEAVEEALSDENESTILMVVEAAADMNPAEIVPALKRIFWDKGRDAQRAIATQLARIASLEDVDFFLDLLERAEDAHVIKAALHFLGHRARPAGVGERMLALLDHPYDDVKEAALEACIALQDVSLCASFRERFHSGDPLQRMMATYAMGRLDVDGNLDVLREALVDDVPDVRKVALEALAGTCPITPEHLELVVPLMHDPVREVRLALVDLFGACPEESVIGHLLEALDDEDDWVRVRAIEALGRLGRKECVTPLIERVDGAGNLVLLKIIEALGSIGGNMAFRALLALMEHEDPEIQQAAEDAVARLGEQDSEGE | failed
12 | MSLKLYGFSVSNYYNMVKLALLEKGLTFEEVTFYGGQAPQALEVSPRGKVPVLETEHGFLSETSVILDYIEQTQGGKALLPADPFGQAKVRELLKEIELYIELPARTCYAESFFGMSVEPLIKEKARADLLAGFATLKRNGRFAPYVAGEQLTLADLMFCFSVDLANAVGKKVLNIDFLADFPQAKALLQLMGENPHMPRILADKEASMPAFMEMIRSGKREGHHHHHH | not failed
13 | MTVTNMTEWFAKGVEALHHDHVYLARACFEQAVTEQRSPLSSSYLALCQAKTRGTFSDAIASAREAVAADPANPALYHNLGCIYLLAGKRTEAIETFRQGLRVGLEHHHHHH | not failed
14 | MTIQLLNDRYQVIRTLGAGGFGETYLAEDTYMPSKRRCVVKQLRPIQNNPQIYQLVQERFQREAAILEELGGATEQIPALYAYFSADGQFYLVQEWVEGDTLTGRLQQQGLFTESAIQELLVNLLPVLEYVHSKHIVHRDIKPDNIILRHRDGKPVLIDFGAVRESMGTVVNSQGNPTSSIVIGTPGYMPSEQAAGRPVYSSDLYSLGLTAIYLLTGRQPQTLEIDSQTGEIMWRQYASQMNPILASVLDKAIAYHPRDRYATARAMLDNLQSISSPIPPTQPYFAPPPVVSAPPQPTVPVAPQANVTGNNQKGILFGSLIAGGLIGASVIIGLAFTRTPQPVAENNNTSPVNSITETPVIKATPEVTQPPVTAQPIVPSPQQQVNSSPFPSITSVPIDVNINNNNYLWLSQQAVTDADLDDKDGYTLDIMRNTVFARHGRRFDNPGLQDYFNNQPWYNPIYSPKEFPIKLLTRLEQRNVDYIAAYQKRYNLRHFK | failed
15 | ILQLTSDTLILVDKNGTCLDIDPHSDLWFLQEDRLLGKNLFNLLPDHTFQKLLPDFRRVTQQGITVNRNYRLPLEGGETYYFKCIMQPYDGDKVLCQYRDIT | failed
16 | MIIAGLDVGTTKVTTVIGELAPDGVLDIIGEGTVPSQGLRRGVVVNLERTTEAIRQSLFQAERVAGVKVERVVVGVGGPHLKSVTSHGLAAIRRGHTIAEADVERAIEQAKAYPFEGELELLHALPLEFKVDGQEGIRDPVGMAGVRLEVDVHLIAAGRGPLANLRRAVEEAGLALDAVCVQALASGLAVLTPEEEEMTVLLLDIGGGTTDVAVFRGGRLAHSAVVPLGGDHVTHDIAQLLKIPFEEAERVKRKYGAALPELADPELVLEINQEGGALGEVPAPELARIIRPRMREILHLARQSVDETLGPLEIQVNRVVLTGGGALLRGTDLLARQQYGLPVRVGKPQGVSGLTDVVASPAHAAAVGLVRYGASLPLKPQEAKRIREKPEDKPKGEGLWARIKEFLSNLF | failed
17 | MKVLSYLKNFYLFLAIGAIMQASENMGSQHQKTDERVIYLAGGCFWGLEAYMERIYGVIDASSGYANGKTSSTNYEKLHESDHAESVKVIYDPKKISLDKLLRYYFKVVDPVSVNKQGNDVGRQYRTGIYYVNSADKEVIDHALKALQKEVKGKIAIEVEPLKNYVRAEEYHQDYLKKHPSGYCHIDLKKADEVIVDDDKYTKPSDEVLKKKLTKLQYEVTQNKHTEKPFENEYYNKEEEGIYVDITTGEPLFSSADKYDSGCGWPSFSKPINKDVVKYEDDESLNRKRIEVLSRIGKAHLGHVFNDGPKELGGLRYCINSAALRFIPLKDMEKEGYGEFIPYIKKGELKKYINDKKSH | failed
18 | MQEEWNPLMKNRCIIWLVTGICLTVIFQFPLKSVASSADKYANFAELAEHETEGEDYQIEYTDMGTELLILSPHGGGIEGGVSELVRAFSADYSTYLFEGIKPSQNWDLHITSNHFDEPQALKAVKEHSYVLAFHGYHDIVEHTLVGGTDTGGAKAIVRALLNKGFSAELVSPSHRLAGGNPENINNQCKTGQSIQLEISTPQREAFFSEFGLWTRASSKNETFQAYVSAVKEVLETRYK | failed
19 | RLQPIIVPGWQGSGPGHWQTHWSRTLPHAVRLQQRDWHQPQRAEWVAALAAAVDAAPTPVLLVAHSLGCLVSAALPIALRAKVAGALLVAPADVERPGAPAAIAAFGPVPRQSLPYQSVVIASDDDPYCRLERARQFAQDWGSRLVVLQGAGHINADSQLGAWPQGLKQLAALRRRACW | failed
20 | MTQMRMPTSPTRPATAWPLYALPSPGEAIRQFTPNWFAVTMGTGILSLVLGQLPWPVPGAALLGAGLWRCNVGLFVVFSALYLARWALYPHEARRILAHPTASMFLGTIPMGLATLINGLLLYGLPRWGAAVIPVATALWWMDAAMALACGVLVPYLMFTRQQHRMEQMTALWLLPVVAAEVAAASAGALAPHLADAGSRFGMLVAGYVLWAYSVPVALGILVILWLRMALHQLPQASMAASSWLALGPIGTGALGMLVFAGDAPALFAAHGMGTIGQAAAGCGLIAGLLLWGLGLWWLALAILITARYFADKVPFNLGWWGFTFPLGVYALATLKLGAALQMQVFDVVGSVLVLLLCVTWTIVAARTAAGAYRGTLFVAPCLVESSEHAPAR | failed
